{
  "source": "paper PMC3794917",
  "system": "Rad51",
  "assay": "EM",
  "conditions": "RPA pre-bound to ssDNA, no Rad52, 60 mM NaCl; all filaments complete; Rad52 EMSA: 10 mM Tris-HCl pH 8, 5 mM MgCl2, 100 mM NaCl, 37 C, 10 min, 0.27 uM XV2, 8% native PAGE; filament assays: SEB buffer, 60 mM NaCl (or titrated) …",
  "data": [
    {"substance": "400-nt ssDNA fragment", "values": [
      {"measurement": "binding signal (% of Rad51 filaments formed)", "value": 12.5}
    ]}
  ]
}
